From patent publication US20030190342A1

Tests used:
[1] = biological target: calf skin collagen (calf); assay: microtiter plate competition: inhibition of binding of vWF in diluted hamster plasma to coated calf skin collagen
[2] = biological target: human collagen type I (human) (UniProt P02452); assay: microtiter plate competition: inhibition of binding of vWF in diluted hamster plasma to coated human collagen type I
[3] = biological target: human collagen type III (human) (UniProt P02461); assay: microtiter plate competition: inhibition of binding of vWF in diluted porcine plasma to coated human collagen type III
Sequence of UniProt P02461 (P02461 154-1221): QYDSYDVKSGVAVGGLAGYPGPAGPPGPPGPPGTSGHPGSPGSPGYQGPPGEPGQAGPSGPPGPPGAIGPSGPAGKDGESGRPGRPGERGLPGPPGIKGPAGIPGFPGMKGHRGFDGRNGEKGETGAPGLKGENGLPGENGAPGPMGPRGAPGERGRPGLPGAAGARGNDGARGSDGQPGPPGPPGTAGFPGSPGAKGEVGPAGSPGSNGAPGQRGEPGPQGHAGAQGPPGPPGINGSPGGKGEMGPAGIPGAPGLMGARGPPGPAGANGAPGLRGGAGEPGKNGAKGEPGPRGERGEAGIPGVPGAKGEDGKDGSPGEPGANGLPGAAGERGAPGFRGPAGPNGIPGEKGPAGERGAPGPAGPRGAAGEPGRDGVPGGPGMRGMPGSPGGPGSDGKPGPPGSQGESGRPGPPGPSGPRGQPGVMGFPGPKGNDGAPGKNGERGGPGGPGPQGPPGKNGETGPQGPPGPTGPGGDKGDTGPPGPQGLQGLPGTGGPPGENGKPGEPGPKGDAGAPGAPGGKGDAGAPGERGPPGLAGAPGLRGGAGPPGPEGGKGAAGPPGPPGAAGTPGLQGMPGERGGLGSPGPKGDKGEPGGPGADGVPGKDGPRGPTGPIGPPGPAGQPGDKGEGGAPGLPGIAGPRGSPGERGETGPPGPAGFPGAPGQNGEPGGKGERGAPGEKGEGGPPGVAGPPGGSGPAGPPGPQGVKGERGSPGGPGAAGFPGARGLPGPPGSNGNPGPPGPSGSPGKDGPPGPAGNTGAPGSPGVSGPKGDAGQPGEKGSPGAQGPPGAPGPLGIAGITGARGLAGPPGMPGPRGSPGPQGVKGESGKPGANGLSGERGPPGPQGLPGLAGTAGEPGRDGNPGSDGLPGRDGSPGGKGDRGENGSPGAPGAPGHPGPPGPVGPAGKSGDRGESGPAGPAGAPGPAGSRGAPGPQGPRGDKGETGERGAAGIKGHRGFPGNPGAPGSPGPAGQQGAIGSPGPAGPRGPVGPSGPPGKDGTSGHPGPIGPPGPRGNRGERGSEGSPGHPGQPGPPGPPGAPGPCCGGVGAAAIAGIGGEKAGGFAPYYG

[4] = biological target: human collagen type III (human) (UniProt P02461); assay: microtiter plate competition: inhibition of purified human vWF binding to coated human collagen III; competitor purified human vWF, detected with anti-vWF-HRP
[5] = biological target: human collagen type III (human) (UniProt P02461); assay: microtiter plate competition: inhibition of binding of vWF in diluted human plasma to coated human collagen type III
[6] = biological target: human collagen type III (human) (UniProt P02461); assay: SPR (BIAcore 3000), immobilised human collagen type III, Scatchard analysis of plateau RU; high affinity site
[7] = biological target: human collagen type I (human) (UniProt P02452); assay: microtiter plate competition: inhibition of binding of vWF in diluted murine plasma to coated human collagen type I
[8] = biological target: calf skin collagen (calf); assay: cell-based or functional assay
[9] = biological target: collagen (platelet aggregation agonist, 0.5 µg ml^-1); assay: cell-based or functional assay
[10] = biological target: calf skin collagen (calf); assay: microtiter plate competition: inhibition of binding of vWF in diluted murine plasma to coated calf skin collagen
[11] = biological target: calf skin collagen (calf); assay: microtiter plate competition: inhibition of binding of vWF in diluted human plasma to coated calf skin collagen
[12] = biological target: human collagen type I (human) (UniProt P02452); assay: microtiter plate competition: inhibition of purified human vWF binding to coated human collagen I; competitor purified human vWF, detected with anti-vWF-HRP
[13] = biological target: calf skin collagen (calf); assay: microtiter plate competition: inhibition of binding of vWF in diluted porcine plasma to coated calf skin collagen
[14] = biological target: calf skin collagen (calf); assay: microtiter plate competition: inhibition of purified human vWF binding to coated calf skin collagen; competitor purified human vWF, detected with anti-vWF-HRP
[15] = biological target: human collagen type III (human) (UniProt P02461); assay: microtiter plate competition: inhibition of binding of vWF in diluted murine plasma to coated human collagen type III
[16] = biological target: human collagen type I (human) (UniProt P02452); assay: microtiter plate competition: inhibition of binding of vWF in diluted human plasma to coated human collagen type I
[17] = biological target: human collagen type III (human) (UniProt P02461); assay: SPR (BIAcore 3000), immobilised human collagen type III, Scatchard analysis of plateau RU; low affinity site
[18] = biological target: human collagen type I (human) (UniProt P02452); assay: microtiter plate competition: inhibition of binding of vWF in diluted porcine plasma to coated human collagen type I

Sequence of UniProt P02452 (P02452 162-1218, chain 1 of 2): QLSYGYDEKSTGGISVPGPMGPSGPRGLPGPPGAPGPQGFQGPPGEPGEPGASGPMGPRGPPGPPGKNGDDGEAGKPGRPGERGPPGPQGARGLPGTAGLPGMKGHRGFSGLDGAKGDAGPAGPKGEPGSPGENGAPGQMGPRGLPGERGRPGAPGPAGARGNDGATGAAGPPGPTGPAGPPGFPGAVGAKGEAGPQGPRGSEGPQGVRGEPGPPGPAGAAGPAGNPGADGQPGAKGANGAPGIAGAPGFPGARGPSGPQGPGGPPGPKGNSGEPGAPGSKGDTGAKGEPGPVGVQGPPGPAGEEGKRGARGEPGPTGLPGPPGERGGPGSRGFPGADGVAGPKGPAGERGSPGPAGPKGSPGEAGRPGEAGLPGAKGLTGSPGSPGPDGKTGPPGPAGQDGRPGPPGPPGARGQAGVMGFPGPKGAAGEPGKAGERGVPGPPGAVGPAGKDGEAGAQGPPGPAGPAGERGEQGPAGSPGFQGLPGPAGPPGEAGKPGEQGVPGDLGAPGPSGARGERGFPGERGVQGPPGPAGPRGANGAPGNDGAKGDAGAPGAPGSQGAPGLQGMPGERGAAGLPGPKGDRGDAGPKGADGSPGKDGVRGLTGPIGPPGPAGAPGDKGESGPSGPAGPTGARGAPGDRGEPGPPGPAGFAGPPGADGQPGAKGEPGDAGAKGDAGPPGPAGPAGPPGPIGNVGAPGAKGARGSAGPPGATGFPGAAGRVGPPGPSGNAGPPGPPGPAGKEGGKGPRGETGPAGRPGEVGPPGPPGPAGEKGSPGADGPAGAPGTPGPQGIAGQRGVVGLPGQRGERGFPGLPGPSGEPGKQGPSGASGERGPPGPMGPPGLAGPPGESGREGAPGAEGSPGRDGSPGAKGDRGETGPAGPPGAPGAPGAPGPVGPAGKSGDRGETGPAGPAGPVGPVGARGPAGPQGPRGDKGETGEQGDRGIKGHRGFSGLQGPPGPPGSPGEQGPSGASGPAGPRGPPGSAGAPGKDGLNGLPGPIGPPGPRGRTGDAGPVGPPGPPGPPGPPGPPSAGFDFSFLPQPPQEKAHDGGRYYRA
Sequence of UniProt P02452 (P08123 80-1119, chain 2 of 2, further chain): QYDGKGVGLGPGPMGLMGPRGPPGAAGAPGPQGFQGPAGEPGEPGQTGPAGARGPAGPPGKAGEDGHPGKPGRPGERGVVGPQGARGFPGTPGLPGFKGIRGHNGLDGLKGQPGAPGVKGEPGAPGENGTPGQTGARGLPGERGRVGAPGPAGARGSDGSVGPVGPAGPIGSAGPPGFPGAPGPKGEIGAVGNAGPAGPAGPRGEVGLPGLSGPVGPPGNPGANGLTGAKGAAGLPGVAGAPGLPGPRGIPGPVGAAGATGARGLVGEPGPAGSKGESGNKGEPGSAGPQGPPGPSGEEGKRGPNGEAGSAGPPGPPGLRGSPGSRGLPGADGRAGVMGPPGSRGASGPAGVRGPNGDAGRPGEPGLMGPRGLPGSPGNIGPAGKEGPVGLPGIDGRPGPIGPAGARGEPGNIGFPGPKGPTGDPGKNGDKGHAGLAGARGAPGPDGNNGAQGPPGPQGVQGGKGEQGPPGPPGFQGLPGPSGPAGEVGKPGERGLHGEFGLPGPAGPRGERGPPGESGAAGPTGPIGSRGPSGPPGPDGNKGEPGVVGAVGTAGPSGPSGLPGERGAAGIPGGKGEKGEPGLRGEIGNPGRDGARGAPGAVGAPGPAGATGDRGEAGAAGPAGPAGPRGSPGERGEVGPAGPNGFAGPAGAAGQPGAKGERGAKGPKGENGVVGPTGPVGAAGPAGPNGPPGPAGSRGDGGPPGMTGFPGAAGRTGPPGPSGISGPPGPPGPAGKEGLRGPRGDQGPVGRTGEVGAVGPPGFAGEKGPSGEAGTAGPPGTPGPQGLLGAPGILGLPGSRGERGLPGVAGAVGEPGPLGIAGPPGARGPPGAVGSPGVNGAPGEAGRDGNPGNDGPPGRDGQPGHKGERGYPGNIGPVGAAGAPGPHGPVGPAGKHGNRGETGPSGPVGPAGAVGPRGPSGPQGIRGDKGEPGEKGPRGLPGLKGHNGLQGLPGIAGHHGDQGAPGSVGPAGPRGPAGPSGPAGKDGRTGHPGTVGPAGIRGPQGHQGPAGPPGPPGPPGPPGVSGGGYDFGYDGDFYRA

## Saratin
[1]
  IC50: 7 µg/mL
[2]
  IC50: 0.4 µg/mL
[3]
  IC50: 0.5 µg/mL
[4]
  IC50: 0.81 µg/mL
[5]
  IC50: 0.9 µg/mL
[6]
  Kd: 0.05 µM
[7]
  IC50: 0.1 µg/mL
[8]
  IC50 of inhibition of platelet adhesion to collagen-coated coverslips, flow chamber, shear rate 1300 s^-1: 5.2 µg/mL
  IC50 of inhibition of platelet adhesion to collagen-coated coverslips, flow chamber, shear rate 2700 s^-1: 0.96 µg/mL
  inhibition of platelet adhesion to collagen-coated coverslips, flow chamber, shear rate 300 s^-1: > 10 µg/mL
[9]
  Aggregation (%) of platelet-rich plasma induced by collagen at 10 µg ml^-1 saratin: 67%
  Aggregation (%) of platelet-rich plasma induced by collagen at 20 µg ml^-1 saratin: 63%
  Aggregation (%) of platelet-rich plasma induced by collagen at 40 µg ml^-1 saratin: 64%
  Aggregation (%) of platelet-rich plasma induced by collagen at 200 µg ml^-1 saratin: 0%
[10]
  IC50: 0.3 µg/mL
[11]
  IC50: 0.3 µg/mL
[12]
  IC50: 0.23 µg/mL
[13]
  IC50: 0.5 µg/mL
[14]
  IC50: 0.44 µg/mL
[15]
  IC50: 0.6 µg/mL
[16]
  IC50: 0.2 µg/mL
[17]
  Kd: 2 µM
[18]
  IC50: 0.2 µg/mL
